From the supplement of paper PMC10065799, “High-throughput profiling of sequence recognition by tyrosine kinases and SH2 domains using bacterial peptide display” (eLife, 2023)

Tests used:
FGFR3 = FGFR3 (UniProt P22607); assay: phosphorylation enrichment, bacterial display (enrichment ratio); higher = better substrate or ligand; peptides without Tyr show the background
EPHB2 = EPHB2 (UniProt P29323); assay: as above
Fes = Fes (UniProt P07332); assay: as above
MERTK = MERTK (UniProt Q12866); assay: as above
AncSZ = assay: as above
c-Src = assay: as above
c-Abl (mouse) = assay: as above
Fyn = Fyn (UniProt P06241); assay: as above
FGFR1 = FGFR1 (UniProt P11362); assay: as above
Chain of FGFR1 (P11362 whole entry, looked up): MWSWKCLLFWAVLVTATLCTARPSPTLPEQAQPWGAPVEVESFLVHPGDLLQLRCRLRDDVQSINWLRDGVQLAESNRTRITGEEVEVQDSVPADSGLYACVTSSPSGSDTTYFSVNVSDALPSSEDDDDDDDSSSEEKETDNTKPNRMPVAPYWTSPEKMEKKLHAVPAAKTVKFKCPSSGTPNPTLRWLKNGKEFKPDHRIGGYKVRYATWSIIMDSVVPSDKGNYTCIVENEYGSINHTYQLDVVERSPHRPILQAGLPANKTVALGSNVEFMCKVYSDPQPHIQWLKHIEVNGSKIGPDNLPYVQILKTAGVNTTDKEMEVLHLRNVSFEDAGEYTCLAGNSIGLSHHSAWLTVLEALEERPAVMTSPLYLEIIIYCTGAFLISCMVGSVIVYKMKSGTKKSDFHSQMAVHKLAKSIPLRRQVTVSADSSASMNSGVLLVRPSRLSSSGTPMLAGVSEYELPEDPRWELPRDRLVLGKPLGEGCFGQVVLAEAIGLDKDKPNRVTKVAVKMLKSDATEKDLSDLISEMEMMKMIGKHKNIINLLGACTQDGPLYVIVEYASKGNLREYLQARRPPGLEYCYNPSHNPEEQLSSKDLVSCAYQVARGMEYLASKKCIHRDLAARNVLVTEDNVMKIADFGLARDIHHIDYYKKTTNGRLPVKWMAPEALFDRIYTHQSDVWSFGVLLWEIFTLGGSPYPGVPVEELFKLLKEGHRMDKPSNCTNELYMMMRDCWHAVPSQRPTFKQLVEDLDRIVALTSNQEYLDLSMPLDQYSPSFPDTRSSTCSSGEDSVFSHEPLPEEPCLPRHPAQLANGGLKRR

Hck = Hck (UniProt P08631); assay: as above
Chain of Hck (P08631 whole entry, looked up): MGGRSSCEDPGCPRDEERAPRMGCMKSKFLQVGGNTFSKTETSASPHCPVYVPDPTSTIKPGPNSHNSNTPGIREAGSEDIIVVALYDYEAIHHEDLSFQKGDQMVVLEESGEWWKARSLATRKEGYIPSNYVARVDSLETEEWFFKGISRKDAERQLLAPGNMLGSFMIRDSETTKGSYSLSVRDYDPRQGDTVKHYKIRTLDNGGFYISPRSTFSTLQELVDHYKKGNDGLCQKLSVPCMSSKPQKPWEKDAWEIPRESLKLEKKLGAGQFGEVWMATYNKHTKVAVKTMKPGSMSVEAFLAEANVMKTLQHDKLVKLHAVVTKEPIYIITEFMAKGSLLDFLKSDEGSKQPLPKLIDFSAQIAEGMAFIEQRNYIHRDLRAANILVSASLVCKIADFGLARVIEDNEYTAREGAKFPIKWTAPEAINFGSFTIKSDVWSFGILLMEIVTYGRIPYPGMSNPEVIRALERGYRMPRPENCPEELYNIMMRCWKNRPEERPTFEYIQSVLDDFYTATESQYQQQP

Jak2 = Jak2 (UniProt O60674); assay: as above
EPHB1 = EPHB1 (UniProt P54762); assay: as above
Chain of EPHB1 (P54762 whole entry, looked up): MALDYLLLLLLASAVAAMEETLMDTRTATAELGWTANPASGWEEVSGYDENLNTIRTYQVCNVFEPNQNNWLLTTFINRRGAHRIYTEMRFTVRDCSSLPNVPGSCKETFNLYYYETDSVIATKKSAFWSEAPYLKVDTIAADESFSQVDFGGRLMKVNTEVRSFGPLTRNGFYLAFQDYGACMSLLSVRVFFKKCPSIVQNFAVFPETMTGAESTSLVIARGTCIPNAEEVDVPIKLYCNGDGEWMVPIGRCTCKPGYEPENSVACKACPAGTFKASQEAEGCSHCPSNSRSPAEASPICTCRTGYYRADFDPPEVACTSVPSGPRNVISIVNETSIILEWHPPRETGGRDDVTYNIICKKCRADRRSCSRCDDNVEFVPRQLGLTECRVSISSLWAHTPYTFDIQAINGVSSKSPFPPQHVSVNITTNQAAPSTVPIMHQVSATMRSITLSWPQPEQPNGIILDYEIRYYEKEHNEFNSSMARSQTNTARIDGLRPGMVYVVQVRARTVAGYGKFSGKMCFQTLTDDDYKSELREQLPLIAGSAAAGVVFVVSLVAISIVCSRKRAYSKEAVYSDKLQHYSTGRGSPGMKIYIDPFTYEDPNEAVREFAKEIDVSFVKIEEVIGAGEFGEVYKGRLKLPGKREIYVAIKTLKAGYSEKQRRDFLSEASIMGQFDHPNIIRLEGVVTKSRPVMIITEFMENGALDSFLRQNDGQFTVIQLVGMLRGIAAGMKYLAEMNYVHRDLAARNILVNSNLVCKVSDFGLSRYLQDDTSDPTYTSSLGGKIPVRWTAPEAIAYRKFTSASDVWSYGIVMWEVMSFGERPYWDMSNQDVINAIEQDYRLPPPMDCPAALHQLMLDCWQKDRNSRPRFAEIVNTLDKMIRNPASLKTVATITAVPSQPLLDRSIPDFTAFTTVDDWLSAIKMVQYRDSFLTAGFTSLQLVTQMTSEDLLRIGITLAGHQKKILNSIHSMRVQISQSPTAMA

Fer (mouse) = assay: as above
c-Src SH2 = assay: SH2 binding enrichment of the phosphorylated peptide, bacterial display (enrichment ratio); higher = better substrate or ligand; peptides without Tyr show the background
Grb2 SH2 = Grb2 SH2 (UniProt P62993); assay: as above
SHP2-C SH2 = assay: as above
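Wherever SH2 binding enrichment of the phosphorylated peptide, bacterial display is given: peptide library displayed on the E. coli surface as eCPX fusions, selected cells deep-sequenced, score is each peptide's frequency after selection divided by its frequency in the input.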
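Wherever phosphorylation enrichment, bacterial display is given: 11-residue human phosphosite peptides and single-mutation variants displayed on the E. coli surface, counted by deep sequencing, each peptide's frequency after selection divided by its frequency in the unselected input library; frequency after pTyr selection over input frequency; kinase dosed for 20-30% of maximal phosphorylation in three min.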

Chain of EPHB2 (P29323 whole entry, looked up): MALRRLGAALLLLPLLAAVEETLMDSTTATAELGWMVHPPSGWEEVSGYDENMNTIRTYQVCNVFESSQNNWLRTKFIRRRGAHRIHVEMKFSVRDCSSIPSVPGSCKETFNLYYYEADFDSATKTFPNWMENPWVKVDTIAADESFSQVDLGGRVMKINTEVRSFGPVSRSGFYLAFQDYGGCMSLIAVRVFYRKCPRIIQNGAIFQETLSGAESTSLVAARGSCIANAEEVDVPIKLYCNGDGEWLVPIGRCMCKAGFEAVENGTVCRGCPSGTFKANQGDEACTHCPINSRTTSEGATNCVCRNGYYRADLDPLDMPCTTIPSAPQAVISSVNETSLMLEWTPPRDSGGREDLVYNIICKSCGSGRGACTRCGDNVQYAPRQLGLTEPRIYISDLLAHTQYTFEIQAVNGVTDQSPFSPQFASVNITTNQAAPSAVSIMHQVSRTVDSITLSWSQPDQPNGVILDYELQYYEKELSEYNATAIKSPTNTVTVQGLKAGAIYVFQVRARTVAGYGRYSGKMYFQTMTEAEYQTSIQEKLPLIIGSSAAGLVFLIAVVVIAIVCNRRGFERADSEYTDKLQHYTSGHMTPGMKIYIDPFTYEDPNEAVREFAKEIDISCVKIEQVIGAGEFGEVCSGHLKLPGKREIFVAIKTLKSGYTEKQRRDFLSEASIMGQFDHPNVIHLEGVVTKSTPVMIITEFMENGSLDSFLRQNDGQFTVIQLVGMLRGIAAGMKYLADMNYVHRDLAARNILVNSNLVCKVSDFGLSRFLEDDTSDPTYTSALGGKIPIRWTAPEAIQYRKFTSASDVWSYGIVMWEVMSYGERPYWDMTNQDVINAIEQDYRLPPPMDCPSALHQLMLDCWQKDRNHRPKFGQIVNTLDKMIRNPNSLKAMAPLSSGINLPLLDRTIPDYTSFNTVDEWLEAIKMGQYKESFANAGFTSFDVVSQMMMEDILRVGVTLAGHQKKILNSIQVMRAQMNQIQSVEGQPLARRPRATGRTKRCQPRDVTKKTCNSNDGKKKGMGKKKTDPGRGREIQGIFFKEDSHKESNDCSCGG
Chain of FGFR3 (P22607 whole entry, looked up): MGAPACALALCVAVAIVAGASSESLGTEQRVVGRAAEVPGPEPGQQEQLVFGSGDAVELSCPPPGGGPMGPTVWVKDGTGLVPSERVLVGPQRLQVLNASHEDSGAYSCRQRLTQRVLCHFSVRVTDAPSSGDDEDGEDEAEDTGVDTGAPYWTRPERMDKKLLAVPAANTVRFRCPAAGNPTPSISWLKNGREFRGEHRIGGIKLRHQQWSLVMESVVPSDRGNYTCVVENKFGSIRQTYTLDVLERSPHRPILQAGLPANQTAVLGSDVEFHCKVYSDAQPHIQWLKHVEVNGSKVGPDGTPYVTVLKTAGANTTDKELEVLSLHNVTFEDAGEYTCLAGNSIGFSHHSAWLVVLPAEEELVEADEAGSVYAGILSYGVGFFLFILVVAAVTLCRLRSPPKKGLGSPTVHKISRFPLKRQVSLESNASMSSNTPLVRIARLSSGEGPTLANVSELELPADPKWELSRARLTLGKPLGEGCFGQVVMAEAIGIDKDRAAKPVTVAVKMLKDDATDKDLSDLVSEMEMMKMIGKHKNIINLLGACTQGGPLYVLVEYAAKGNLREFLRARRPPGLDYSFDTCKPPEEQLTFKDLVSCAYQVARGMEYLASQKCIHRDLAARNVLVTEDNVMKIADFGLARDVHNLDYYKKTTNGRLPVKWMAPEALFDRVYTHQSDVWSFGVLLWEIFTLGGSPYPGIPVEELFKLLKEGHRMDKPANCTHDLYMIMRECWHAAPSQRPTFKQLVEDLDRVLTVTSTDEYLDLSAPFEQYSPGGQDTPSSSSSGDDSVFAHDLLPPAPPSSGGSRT
Chain of Fes (P07332 whole entry, looked up): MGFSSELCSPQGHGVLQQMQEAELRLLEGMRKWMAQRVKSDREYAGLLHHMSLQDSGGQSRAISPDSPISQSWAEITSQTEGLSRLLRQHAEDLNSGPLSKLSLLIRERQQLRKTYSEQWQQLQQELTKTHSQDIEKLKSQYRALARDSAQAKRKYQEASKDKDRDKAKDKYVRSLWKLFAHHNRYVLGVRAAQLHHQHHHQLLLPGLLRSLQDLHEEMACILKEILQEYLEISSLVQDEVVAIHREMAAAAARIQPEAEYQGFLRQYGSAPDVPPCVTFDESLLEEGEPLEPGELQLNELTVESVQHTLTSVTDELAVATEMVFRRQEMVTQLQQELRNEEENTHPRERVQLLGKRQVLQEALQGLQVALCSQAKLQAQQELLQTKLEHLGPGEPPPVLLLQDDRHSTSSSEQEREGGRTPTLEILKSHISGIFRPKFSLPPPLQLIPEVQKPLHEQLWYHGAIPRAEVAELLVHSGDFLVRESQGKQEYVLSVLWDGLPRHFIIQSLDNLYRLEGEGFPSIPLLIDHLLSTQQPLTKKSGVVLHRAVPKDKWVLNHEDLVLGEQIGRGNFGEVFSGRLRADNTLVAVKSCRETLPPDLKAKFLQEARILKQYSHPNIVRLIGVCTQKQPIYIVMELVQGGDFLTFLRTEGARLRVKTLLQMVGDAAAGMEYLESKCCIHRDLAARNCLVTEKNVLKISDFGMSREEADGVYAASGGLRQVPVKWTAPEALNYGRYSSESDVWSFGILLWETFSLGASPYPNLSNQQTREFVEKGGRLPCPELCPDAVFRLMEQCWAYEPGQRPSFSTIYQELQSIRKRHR

Row | Sequence | SH2 binding enrichment (c-Src SH2) | SH2 binding enrichment (Grb2 SH2) | SH2 binding enrichment (SHP2-C SH2) | phosphorylation enrichment (FGFR3) | phosphorylation enrichment (EPHB2) | phosphorylation enrichment (Fes) | phosphorylation enrichment (MERTK) | phosphorylation enrichment (AncSZ) | phosphorylation enrichment (c-Src) | phosphorylation enrichment (c-Abl (mouse)) | phosphorylation enrichment (Fyn) | phosphorylation enrichment (FGFR1) | phosphorylation enrichment (Hck) | phosphorylation enrichment (Jak2) | phosphorylation enrichment (EPHB1) | phosphorylation enrichment (Fer (mouse))
1 | SIKDKYVMALF [KCNH2_Y611_T613M_YF] | 0.699 | 1.06 | 0.845 | 0.574 | 0.491 | 0.888 | 0.447 | 0.664 | 0.393 | 0.558 | 0.429 | 0.535 | 0.496 | 0.721 | 0.405 | 0.385
2 | MSSLYYANALF [HOXB7_Y6_T9A] | 2.08 | 4.61 | 1.36 | 4.83 | 8.29 | 1.04 | 10.7 | 1.04 | 4.88 | 3.44 | 4.93 | 5.32 | 6.04 | 2.94 | 7.33 | 5.14
3 | LTMAPYSSVSL [FAM81A_Y24] | 2.72 | 0.691 | 1.82 | 0.488 | 0.45 | 0.618 | 0.556 | 0.628 | 0.897 | 0.511 | 0.536 | 0.498 | 0.495 | 0.518 | 0.412 | 6.06
4 | HILFRYPKEFQ [IDS_Y234_P231L] | 0.572 | 0.625 | 0.791 | 0.92 | 0.797 | 1.19 | 0.573 | 1.33 | 1.64 | 0.744 | 0.63 | 0.866 | 0.603 | 1.59 | 0.822 | 0.779
5 | RQLEIYRASRP [ERCC4_Y594] | 0.402 | 0.623 | 0.49 | 0.389 | 0.254 | 0.673 | 0.391 | 0.663 | 0.408 | 0.727 | 0.426 | 0.312 | 0.316 | 0.535 | 0.388 | 0.427
6 | IGEGTYGVLFK [CDK2_Y15_V18L_YF] | 0.387 | 0.882 | 0.8 | 0.606 | 1.73 | 0.997 | 1.48 | 0.85 | 5.31 | 0.708 | 8.03 | 0.38 | 6.57 | 0.702 | 1.1 | 0.673
7 | MASISYDYCRV [BST2_Y6_T4I] | 1.22 | 1.1 | 0.77 | 1.1 | 3.29 | 0.908 | 0.75 | 1.58 | 0.589 | 0.708 | 0.565 | 1.32 | 1.02 | 1.09 | 4.17 | 2.33
8 | TSNQEYLDLSM [FGFR1_Y766] | 0.487 | 0.863 | 0.781 | 1.17 | 0.626 | 1.08 | 0.437 | 1.14 | 0.492 | 1.02 | 0.485 | 1.53 | 0.464 | 1.03 | 0.8 | 0.457
9 | HLEKKYVHRDS [CSF1R_Y708_R710H] | 0.659 | 1.26 | 1.17 | 0.678 | 0.314 | 0.612 | 0.438 | 0.615 | 0.34 | 0.276 | 0.585 | 0.42 | 0.399 | 0.358 | 0.471 | 0.585

More lines, main results first:

Row | SH2 binding enrichment (c-Src SH2) | SH2 binding enrichment (Grb2 SH2) | SH2 binding enrichment (SHP2-C SH2) | Sequence | phosphorylation enrichment (FGFR3) | phosphorylation enrichment (EPHB2) | phosphorylation enrichment (Fes) | phosphorylation enrichment (MERTK) | phosphorylation enrichment (AncSZ) | phosphorylation enrichment (c-Src) | phosphorylation enrichment (c-Abl (mouse)) | phosphorylation enrichment (Fyn) | phosphorylation enrichment (FGFR1) | phosphorylation enrichment (Hck) | phosphorylation enrichment (Jak2) | phosphorylation enrichment (EPHB1) | phosphorylation enrichment (Fer (mouse))
10 | 0.749 | 0.939 | 1.02 | YDYKKYGKGLR [ZNF445_Y433] | 0.536 | 0.276 | 0.517 | 0.358 | 0.41 | 0.346 | 0.48 | 0.323 | 0.371 | 0.366 | 0.444 | 0.318 | 0.373
11 | 0.484 | 1.03 | 0.726 | ELCSEYRKSRK [SPINK5_Y440] | 0.394 | 0.489 | 0.803 | 0.443 | 0.562 | 0.375 | 0.555 | 0.378 | 0.429 | 0.412 | 0.474 | 0.425 | 0.457
12 | 0.472 | 0.834 | 0.769 | NREGVYTVSAP [TGFBI_Y537_F540S] | 0.523 | 0.517 | 0.705 | 1.16 | 0.757 | 8.38 | 0.565 | 10.9 | 0.462 | 2.34 | 0.719 | 0.537 | 1.12
13 | 1.18 | 1.1 | 0.954 | CNPRRYPVLMS [OR2T1_Y182_L180R] | 0.485 | 0.496 | 0.833 | 0.411 | 0.625 | 0.494 | 0.59 | 0.501 | 0.384 | 0.373 | 0.822 | 0.49 | 0.358
14 | 0.537 | 0.561 | 1.1 | PPDGEYFTLQI [TP53_Y327_L323P] | 10.2 | 1.14 | 1.74 | 0.902 | 3.41 | 5.4 | 2.33 | 3.74 | 12.4 | 2.75 | 3.69 | 1.19 | 1.41
15 | 0.459 | 0.879 | 0.769 | VKPENYRRLDI [VHL_Y175] | 0.463 | 0.324 | 0.48 | 0.337 | 0.473 | 0.324 | 0.345 | 0.351 | 0.615 | 0.331 | 0.298 | 0.58 | 0.305
16 | 0.428 | 0.818 | 0.6 | TIEDSYRKQVV [KRAS_Y40] | 0.561 | 0.371 | 0.79 | 0.369 | 0.62 | 0.426 | 0.599 | 0.388 | 0.398 | 0.358 | 0.703 | 0.383 | 0.348
